Test in all cases: SPR
On the technique in general: Surface plasmon resonance follows binding to a sensor surface in real time, without labels.

The target of assay [1] is MutS STAB3 (Escherichia coli) (UniProt P23909).
Assay [2] deals with MutS STAB2 (Escherichia coli) (UniProt P23909).
Assay [3] concerns the target MutS STAB1 (Escherichia coli) (UniProt P23909).
The target of assay [4] is MutS STAB4 (Escherichia coli) (UniProt P23909).
Assay [5] has as its target T1, WT MutS (Escherichia coli, UniProt P23909 1-853).
T1 sequence (looked up): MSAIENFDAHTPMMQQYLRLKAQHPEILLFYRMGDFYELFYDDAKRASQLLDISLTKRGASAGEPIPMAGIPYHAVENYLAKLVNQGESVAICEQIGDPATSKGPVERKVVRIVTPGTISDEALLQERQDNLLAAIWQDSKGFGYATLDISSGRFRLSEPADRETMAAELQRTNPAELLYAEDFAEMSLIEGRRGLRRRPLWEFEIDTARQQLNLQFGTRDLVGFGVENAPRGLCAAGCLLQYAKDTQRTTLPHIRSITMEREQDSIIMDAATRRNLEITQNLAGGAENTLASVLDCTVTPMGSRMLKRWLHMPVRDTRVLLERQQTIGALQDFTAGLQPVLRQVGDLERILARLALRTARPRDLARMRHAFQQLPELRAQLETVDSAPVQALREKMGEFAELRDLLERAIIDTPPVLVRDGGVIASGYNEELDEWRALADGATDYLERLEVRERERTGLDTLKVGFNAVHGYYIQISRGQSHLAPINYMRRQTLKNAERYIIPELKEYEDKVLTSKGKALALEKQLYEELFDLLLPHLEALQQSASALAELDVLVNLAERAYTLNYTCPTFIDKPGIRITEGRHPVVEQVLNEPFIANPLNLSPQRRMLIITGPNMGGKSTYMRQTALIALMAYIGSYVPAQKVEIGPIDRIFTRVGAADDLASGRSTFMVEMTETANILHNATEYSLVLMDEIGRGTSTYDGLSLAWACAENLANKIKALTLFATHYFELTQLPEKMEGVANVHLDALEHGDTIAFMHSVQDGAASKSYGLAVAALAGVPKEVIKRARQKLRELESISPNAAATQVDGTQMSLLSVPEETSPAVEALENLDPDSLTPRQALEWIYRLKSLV

The values that follow come from paper PMC6895276 (Nucleic Acids Research, 2019).

Usually Kd stands for the free concentration of one partner at which half of the binding sites on the other are occupied at equilibrium, for simple one-to-one binding.

With “MutL WT (from UniProt P23367 1-615) (natural protein)”, the Kd came to 17 nM in assay [1], 16 nM in assay [2], 18 nM in assay [3] and 11 nM in assay [4].

B1: MutL WT (natural protein, UniProt P23367 1-615, looked up)
chain: MPIQVLPPQLANQIAAGEVVERPASVVKELVENSLDAGATRIDIDIERGGAKLIRIRDNGCGIKKDELALALARHATSKIASLDDLEAIISLGFRGEALASISSVSRLTLTSRTAEQQEAWQAYAEGRDMNVTVKPAAHPVGTTLEVLDLFYNTPARRKFLRTEKTEFNHIDEIIRRIALARFDVTINLSHNGKIVRQYRAVPEGGQKERRLGAICGTAFLEQALAIEWQHGDLTLRGWVADPNHTTPALAEIQYCYVNGRMMRDRLINHAIRQACEDKLGADQQPAFVLYLEIDPHQVDVNVHPAKHEVRFHQSRLVHDFIYQGVLSVLQQQLETPLPLDDEPQPAPRSIPENRVAAGRNHFAEPAAREPVAPRYTPAPASGSRPAAPWPNAQPGYQKQQGEVYRQLLQTPAPMQKLKAPEPQEPALAANSQSFGRVLTIVHSDCALLERDGNISLLSLPVAERWLRQAQLTPGEAPVCAQPLLIPLRLKVSAEEKSALEKAQSALAELGIDFQSDAQHVTIRAVPLPLRQQNLQILIPELIGYLAKQSVFEPGNIAQWIARNLMSEHAQWSMAQAITLLADVERLCPQLVKTPPGGLLQSVDLHPAIKALKDE
In assay [5], B1 gave a Kd of 15 nM.
